The nanobody polyreactivity screen of Harvey et al. (2022)

Assay: yeast display, Sf9 membrane polyspecificity reagent, FACS + sequencing; frameworks hold sequencing errors
In short: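 Nanobodies from a synthetic yeast display library (Saccharomyces cerevisiae BJ5465), induced 36–48 hours with galactose, were stained 1 hour at 4 °C with 10% biotinylated, detergent-solubilized Sf9 membrane reagent, enriched on streptavidin microbeads, then FACS-sorted. Anti-HA (expression) and streptavidin (reagent binding) fluorescence set low and high (top ~1%) gates. Polyreactivity labels come from the gate of origin. Genes were colony-PCR amplified, MiSeq 2 × 250 sequenced and filtered by CDR length.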

Sequence | polyreactivity (PSR sort gate)
QVQLVESGGGLVQAGGSLRLSCAASGSIFEVDALGWYRQAPGKERELVAAITSSDITYYADSVKGRFTISRDHAKTTVYLQMNSLKPEDTAVYYCNGEPPYRVKRSDYWGQGTQVTVSS | low polyreactivity
QVQLVESGGGLVQAGGSLRLSCAASGSIFEVNAMGWYRQAPGKERELVATITYSGGSTYYSDSVKGRFTISRDNAKNTVYLQMHSLKPEDTAVFYCAAPIGDVYVGNGYDSWGQGTQVTVSS | low polyreactivity
QVQLVESGGGLVQAGGSLRLSCAASGSIFEWYAMGWYRQAPGKASALVAAISSGGRTYYADSVKGRFTISRDNAKNTVYLQMISLKPEDTAVYYCAARDVDHVGGSKYYYWGLGTQVTVSS | high polyreactivity
QVQLVESGGGLVQAGGSLRLSCAASGSIFEYNAMGWYRQAPGKERELVAAISRSGGSTYYADSVKGRFTISRDNAKNTVYLQMISLKPEDTAVYYCAARSPRYYRDFGYWGQGTQVTVSS | high polyreactivity
QVQLVESGGGLVQAGGSLRLSCAASGSIFEYNGMGWYRQAPGKERELVAAITTTGTTDYADSVKGRFTISRDNAKNTVYLEMNSLIPEDTSVFYCAADYTYYYKGEYEYWGQGTQVTVSS | low polyreactivity
QVQLVESGGGLVQAGGSLRLSCAASGSIFEYYAMGWYRQAPGKERELVADITTIGGSTYYADSVKGRFTISRDNAKNTVYLQMNSLKPEDTAVYYCAADYFTTFYWYDYWGQGTQVTVSS | high polyreactivity
QVQLVESGGGLVQAGGSLRLSCAASGSIFFAYAMGWYRQAPGKERELVAAITSGVSTNYADSVKGRFTISRDNAKNTVYLQMNSLKPEDTAVYYCNADFDYGFDAGLAVQVVIHDYWGQGTQVTVSS | low polyreactivity
QVQLVESGGGLVQAGGSLRLSCAASGSIFFDYAMGGYRQAPGKERELVAAINSGGTTNYADSVKGRFTISRDNAKNTVYLQMKQPETGRYRGLLLQRFPGYLRWYRWFDYWGQGTQVTVSS | low polyreactivity
QVQLVESGGGLVQAGGSLRLSCAASGSIFFEYAMGWYRQAPGKERALVASINRGGGSTYYADSVKGRFTISRDYAKNTVYLQMNILIPEDTAVYYCAAQWKYRQYYLDYYWGQGTQVTVSS | low polyreactivity
QVQLVESGGGLVQAGGSLRLSCAASGSIFFFNAMGWYRQAPGKERELVAAISESGTSTYYADSVKGRFTISRDNAKNTVFLQMNSLKPEDTAVFYCKVVFRYAYGVYYTPEFYYWGQGTQVTVSS | low polyreactivity
QVQLVESGGGLVQAGGSLRLSCAASGSIFFFYDMGWYRKATGKERELVAAISSSGTRTYYADSVKGRFTISRDNAKNTVYLQMNSLKPEDTAVYYCAVVYPSENYYRYDYWGQVTQVTVSS | high polyreactivity
QVQLVESGGGLVQAGGSLRLSCAASGSIFFGNAMGWYRQAPGKERELVAAIDSGGGTNYADSVKGRFTISRDNAKNTVYLQMNSLKPEDTAVYYCAREQGVNRNHDYWGQGTQVTVSS | low polyreactivity
QVQLVESGGGLVQAGGSLRLSCAASGSIFFGYAMGWYRQAPGKERELVATITSSGGITYYADSVKGRFTISRDNAKNTVYLQMNSLKPEDTAVYYCATYYYYTYDYWGQGTQVTVSS | low polyreactivity
QVQLVESGGGLVQAGGSLRLSCAASGSIFFGYGMGWYRQAPGKERELVATITTSGGTYYADAVKGRFTISRDNAKNTVYLQMNSLKPEDTAVYYCAATAAALDGNTIMYYWGQGTQVTVSS | low polyreactivity
QVQLVESGGGLVQAGGSLRLSCAASGSIFFINAMGWYRQAPGKERELVAAIRRGGSTYADSVKGRFTISRDNAKNTVYLQMNSLKPEDTAVYYCAARITWGATAKSRYSYLYDYWGQGTQVTVSS | high polyreactivity
QVQLVESGGGLVQAGGSLRLSCAASGSIFFIYAMGLYRQAPGKERELVAGITSRGITNYADSVKGRFTISRDNAKNTVYLQMNSLKPEDTAVYYCAAGDENYTDRYDYWGQGTQVTVSS | low polyreactivity
